# Experiments:
# [1] = tested on: T1, wild-type FVIII (recombinant human factor VIII with deletion of the B domain)
# T1 sequence: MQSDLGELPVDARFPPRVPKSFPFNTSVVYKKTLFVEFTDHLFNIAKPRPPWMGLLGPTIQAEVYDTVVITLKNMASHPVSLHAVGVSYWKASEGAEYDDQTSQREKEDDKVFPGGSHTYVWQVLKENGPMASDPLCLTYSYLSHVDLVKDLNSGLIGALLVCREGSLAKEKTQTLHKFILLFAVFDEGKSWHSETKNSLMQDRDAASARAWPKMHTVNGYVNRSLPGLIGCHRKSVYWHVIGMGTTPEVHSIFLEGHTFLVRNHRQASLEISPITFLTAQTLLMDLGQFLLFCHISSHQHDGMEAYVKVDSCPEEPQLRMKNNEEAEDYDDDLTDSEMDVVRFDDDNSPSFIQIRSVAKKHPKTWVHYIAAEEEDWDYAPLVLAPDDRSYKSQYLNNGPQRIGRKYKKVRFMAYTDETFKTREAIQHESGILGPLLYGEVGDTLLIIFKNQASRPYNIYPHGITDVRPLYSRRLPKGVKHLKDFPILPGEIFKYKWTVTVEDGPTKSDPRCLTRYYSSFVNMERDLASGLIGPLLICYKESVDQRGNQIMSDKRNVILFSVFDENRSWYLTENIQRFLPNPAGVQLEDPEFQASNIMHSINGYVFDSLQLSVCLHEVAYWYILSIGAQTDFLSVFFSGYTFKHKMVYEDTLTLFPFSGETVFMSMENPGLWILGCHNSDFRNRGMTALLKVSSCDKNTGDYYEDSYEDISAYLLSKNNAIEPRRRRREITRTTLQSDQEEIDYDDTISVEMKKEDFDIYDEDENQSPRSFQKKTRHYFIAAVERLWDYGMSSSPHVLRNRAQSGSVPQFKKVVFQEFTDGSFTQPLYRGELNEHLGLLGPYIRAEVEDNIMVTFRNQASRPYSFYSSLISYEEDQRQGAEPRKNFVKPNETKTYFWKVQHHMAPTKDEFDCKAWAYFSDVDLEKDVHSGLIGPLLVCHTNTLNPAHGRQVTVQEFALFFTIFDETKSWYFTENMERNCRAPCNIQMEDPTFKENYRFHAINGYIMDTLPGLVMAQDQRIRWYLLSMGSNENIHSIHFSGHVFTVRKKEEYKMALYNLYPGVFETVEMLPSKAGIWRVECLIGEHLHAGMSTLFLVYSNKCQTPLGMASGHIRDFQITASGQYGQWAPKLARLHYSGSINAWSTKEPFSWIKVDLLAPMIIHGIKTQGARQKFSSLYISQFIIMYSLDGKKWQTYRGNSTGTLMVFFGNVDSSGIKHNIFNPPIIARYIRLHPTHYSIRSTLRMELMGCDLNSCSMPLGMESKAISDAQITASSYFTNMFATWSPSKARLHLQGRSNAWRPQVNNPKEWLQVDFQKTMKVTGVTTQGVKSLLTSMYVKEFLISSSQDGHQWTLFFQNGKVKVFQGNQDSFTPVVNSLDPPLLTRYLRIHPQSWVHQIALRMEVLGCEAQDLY
# [2] = tested on: FVIII-4A2 (quadruple mutant combining the A2 mutations 409, 462, 507, 629)
substance,measurement,setting,value
Thrombin,activation by thrombin (FXa generation over time),[1],FVIII-4A2 is identically recognized by thrombin as wild-type FVIII with a relative decrease of activity which might be caused by one of the four mutations
same,activation by thrombin (FXa generation over time),[2],FVIII-4A2 is identically recognized by thrombin as wild-type FVIII with a relative decrease of activity which might be caused by one of the four mutations

# Source: patent US20100311659A1
